Experimental data reported in PMC11017283 (Journal of Lipid Research, 2024).

Target: T1, mouse LPL (p.R324A) (mouse, UniProt P11152 28-474, p.R324A)
T1 sequence (looked up): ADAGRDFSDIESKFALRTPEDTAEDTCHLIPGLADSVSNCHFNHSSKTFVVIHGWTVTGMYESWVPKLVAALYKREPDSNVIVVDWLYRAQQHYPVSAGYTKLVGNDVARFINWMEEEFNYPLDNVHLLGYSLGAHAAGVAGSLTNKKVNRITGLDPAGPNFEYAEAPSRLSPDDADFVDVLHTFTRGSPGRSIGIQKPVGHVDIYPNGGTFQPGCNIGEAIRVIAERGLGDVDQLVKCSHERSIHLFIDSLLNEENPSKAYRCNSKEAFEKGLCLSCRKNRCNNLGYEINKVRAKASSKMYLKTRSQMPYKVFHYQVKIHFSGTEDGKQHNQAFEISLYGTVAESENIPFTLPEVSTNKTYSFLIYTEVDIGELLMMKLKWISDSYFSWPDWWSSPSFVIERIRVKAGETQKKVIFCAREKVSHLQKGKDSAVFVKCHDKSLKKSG
Assay: native gel or EMSA

binding result: binds
B1: recombinant human GPIHBP1, soluble (residues 1-131) (domain or fragment, UniProt Q8IV16 21-151, looked up)
chain: QTQQEEEEEDEDHGPDDYDEEDEDEVEEEETNRLPGGRSRVLLRCYTCKSLPRDERCNLTQNCSHGQTCTTLIAHGNTESGLLTTHSTWCTDSCQPITKTVEGTQVTMTCCQSSLCNVPPWQSSRVQDPTG
